Test results published in US7556938B1, “Nucleic acids encoding potassium channel interactors” (Millennium Pharmaceuticals, Inc., priority 1998, dated 2009).

Key:
rKv4.2 = molecular target: T1, rKv4.2 (Rattus norvegicus, UniProt Q63881); assay: Patch-clamp of Kv4.2 currents in CHO cells coexpressing KChIPs; assay type: cell-based
T1 construct: expressed in transfected cells; host or cells: CHO cells, transient transfection with GFP co-transfected
T1 sequence (Q63881 1-630): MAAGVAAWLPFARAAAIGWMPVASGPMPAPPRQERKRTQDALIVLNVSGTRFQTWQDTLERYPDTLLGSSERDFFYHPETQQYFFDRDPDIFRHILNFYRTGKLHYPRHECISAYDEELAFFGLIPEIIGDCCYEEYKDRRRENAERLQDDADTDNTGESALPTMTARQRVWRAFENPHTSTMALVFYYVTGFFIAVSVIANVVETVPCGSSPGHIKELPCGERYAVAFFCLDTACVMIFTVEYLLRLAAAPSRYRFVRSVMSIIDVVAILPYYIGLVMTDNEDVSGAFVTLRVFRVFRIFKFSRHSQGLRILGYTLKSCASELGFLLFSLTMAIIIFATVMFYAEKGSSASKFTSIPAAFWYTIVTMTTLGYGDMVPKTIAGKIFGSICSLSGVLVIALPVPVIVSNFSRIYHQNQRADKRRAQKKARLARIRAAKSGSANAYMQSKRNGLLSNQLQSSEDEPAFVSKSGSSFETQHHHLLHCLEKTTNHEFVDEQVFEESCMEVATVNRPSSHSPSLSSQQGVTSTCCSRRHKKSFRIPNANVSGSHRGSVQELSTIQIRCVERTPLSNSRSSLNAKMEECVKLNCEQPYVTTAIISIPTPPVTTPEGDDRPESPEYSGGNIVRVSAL
Procedure: HEK 293 and CHO cells were used for recordings 1-3 days after a transient transfection. Whole-cell currents were recorded from cells expressing GFP, identified by their green fluorescence. […] After Gigaseal and ruptured whole-cell configuration access, resistance was less than 10 MOhms. Whole-cell bath solutions were made from a 10× Hank's balanced salt solution (GibcoBRL) with the following final concentration (in mM): 138 NaCl, 5.4 KCl, 1.3 MgCl2, 1.3 CaCl2, 5.5 D-Glukos and 10 HEPES, pH 7.4. The intracellular electrode solution consisted of (in mM) 140 KCl, 10 HEPES, 10 EGTA, 0.5 MgCl2, pH 7.3. All chemicals were from Sigma (St. Louis, Mo.) or Fisher Scientific (Houston, Tex.). Membrane currents were recorded using a EPC9 patch-clamp amplifier (HEKA, Germany). Data were analyzed using Matlab (Natick, Ma), and leak subtracted if necessary. All experiments were done at room temperature.
Because PCIPs, e.g., KChIP1 (1v), KChIP2 (9ql), and KChIP3 (p19), colocalize and coassociate with Kv4 α-subunits in brain, another critical question was to determine whether these PCIPs alter the conductance properties of Kv4 channels. To address this issue, Kv4.2 and Kv4.3 were expressed alone and in combination with individual PCIPs. CHO cells were transiently-transfected with cDNA using the DOTAP lipofection method as described by the manufacturer (Boehringer Mannheim, Inc.). Transfected cells were identified by cotransfecting enhanced GFP along with the genes of interest and subsequently determining if the cells contained green GFP fluorescence. Currents in CHO cells were measured using the patch-clamp technique (Hamill et al. 1981. Pfluegers Arch. 391: 85-100).
First, the amplitude of the Kv4.2 current increased approximately 7.5 fold in the presence of KChIP1 (amplitude of Kv4.2 alone=0.60+/−0.096 nA/cell; Kv4.2+KChIP1=4.5+/−0.55 nA/cell). […] Finally, the kinetics of Kv4.2 inactivation slowed considerably when Kv4.2 was coexpressed with KChIP1 (inactivation time constant of Kv4.2 alone=28.2+/−2.6 ms; Kv4.2+KChIP1=104.1+/−10.4 ms), while channels recovered from inactivation much more rapidly in cells expressing both Kv4.2 and KChIP1 (recovery tau=53.6+/−7.6 ms) versus cells expressing Kv4.2 alone (recovery tau=272.2+/−26.1 ms).

rKv4.3N = molecular target: T2, rKv4.3N (Rattus norvegicus, UniProt Q62897); assay: Yeast two-hybrid binding and specificity test, Kv4.3 N-terminal bait
T2 construct: expressed in transfected cells; host or cells: yeast HF7c (bait), mated with Y187 (fish)
T2 sequence (Q62897 1-180): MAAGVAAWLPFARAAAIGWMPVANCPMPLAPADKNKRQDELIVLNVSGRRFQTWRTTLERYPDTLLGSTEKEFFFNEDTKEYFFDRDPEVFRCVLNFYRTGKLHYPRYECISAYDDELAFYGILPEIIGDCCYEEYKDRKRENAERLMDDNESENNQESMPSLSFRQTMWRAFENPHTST
In short: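 Bait of rat Kv4.3 residues 1–180 in pGBT9, expressed in yeast HF7c, screened against a rat midbrain library. Positives scored by His and filter β-galactosidase reporters. Specificity tested by mating prey (in Y187) against a panel of related and unrelated baits and checking reporter activity.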

[1] = rKv4.2 coexpressed with the KChIP, at 50 mV

B1: KChIP1: Potassium channel interacting protein 1v, a Ca2+-binding protein that binds and modulates Kv4 channels (protein)
chain: MPARVLLAYPGTEMLTQGESEGLQTLGIVVVLCSSLKLLHYLGLIDLSDDKIEDDLEMTMVCHRPEGLEQLEAQTNFTKRELQVLYRGFKNECPSGVVNEETFKQIYAQFFPHGDASTYAHYLFNAFDTTQTGSVKFEDFVTALSILLRGTVHEKLRWTFNLYDINKDGYINKEEMMDIVKAIYDMMGKYTYPVLKEDTPRQHVDVFFQKMDKNKDGIVTLDEFLESCQEDDNIMRSLQLFQNVM
- activation V1/2 (rKv4.2; Kv4.2 coexpressed with KChIP1): −12.1+/−1.4 mV
- Inactivation time constant (ms, at 50 mV) (rKv4.2; [1]): 104.1 ± 10.4 ms
- Peak Current (nA/cell at 50 MV) (rKv4.2; [1]): 4.5+/−0.55 nA/cell
- Peak Current Density (pA/pF at 50 mV) (rKv4.2; [1]): 306.9+/−57.9 pA/pF
- fold increase of Kv4.2 current amplitude (rKv4.2; versus Kv4.2 alone): approximately 7.5 fold
- fold increase of Kv4.2 current density (rKv4.2; versus Kv4.2 alone): 12 fold
- binding to rKv4.3N in yeast two-hybrid assay (rKv4.3N): able to bind to the Kv4.3 polypeptide
